Laboratory results taken from US20100081620.

Biological target: T1, Dabcyl-LAQAHomoPheRSC(Fluorescein)-NH2
T1 chain: LAQAFRSC
Assay: enzyme kinetics, initial velocities fitted to a pure competitive two-site model

B1: Human ADAM10 protease containing the catalytic/disintegrin domains (protein)
chain: TTSAEKNTCQLYIQTDHLFFKYYGTREAVIAQISSHVKAIDTIYQTTDFSGIRNISFMVKRIRINTTADEKDPTNPFRFPNIGVEKFLELNSEQNHDDYCLAYVFTDRDFDDGVLGLAWVGAPSGSSGGICEKSKLYSDGKKKSLNTGIITVQNYGSHVPPKVSHITFAHEVGHNFGSPHDSGTECTPGESKNLGQKENGNYIMYARATSGDKLNNNKFSLCSIRNISQVLEKKRNNCFVESGQPICGNGMVEQGEECDCGYSDQCKDECCFDANQPEGRKCKLKPGKQCSPSQGPCCTAQCAFKSKSEKCRDDSDCAREGICNGFTALCPASDPKPNFTDCNRHTQVCINGQCAGSICEKYGLEECTCASSDGKDDKELCHVCCMKKMDPSTCASTGSVQWSRHFSGRTITLQPGSPCNDFRGYCDVFMRCRLVDADGPLARLKKAIFSPELYENIAE
Ks (binding constant for substrate): the binding constant, Ks for substrate was 16±4.6 µM
